Data set [1] is described as follows: Aggregation by transmission electron microscopy. To be noted: 37 °C. It is filed as physicochemical. As to the method:
Transmission Electron Microscopy (TEM)
TEM studies were carried out on a JEOL 2100F. The proteins (0.09 mg/ml) were incubated at 37 °C for 2 weeks prior to the measurements. The proteins were spotted on a carbon-coated copper grid and positively stained with 2% uranyl acetate. The sample was then dried and examined by TEM using a 210 kV accelerating voltage.
Figure 5 Transmission electron microscope images showing aggregation by GST-Als5. […] The scale bar in each panel represents 100 nm. Left panel: 10,000X magnification. Right panel: 25,000X magnification.
(A) Prediction of β-aggregation potential for the GPI anchor attachment signal sequence (SS). The prediction of β-aggregation potential for the SS was done using TANGO (residues 1328–1347). Also shown is the propensity for α-helix, β-turn and β-sheet formation in the unfolded polypeptide chain as predicted by TANGO. […] (B). Transmission electron microscope images showing aggregation by SS and SS in the presence of GST-Als5. The samples, SS (40.0 µM), GST-Als5 (0.4 µM) and GST-Als5 (0.4 µM) + SS (40.0 µM) were incubated as 37 °C for two days before TEM images were recorded.

The nature of data set [2]: Aggregation/precipitation on concentrating the protein. Particulars: attempts to concentrate protein above ∼0.09 mg/ml. It is filed as physicochemical. From the text: However, we observed bands of Mr ∼270 kDa, for both GST-Als5 and GST-Als5-SS (Figure 1B). This marked difference between the observed molecular weights in SDS-PAGE and the expected molecular weights has been previously attributed to the high content of hydroxyl amino acids in proteins; both Als5 and Als5-SS are rich in serine and threonine residues.
It must be pointed out that a PreScission^TM protease site exists between the fusion tag and the Als5 proteins in the two constructs. However, our attempts to cleave off the fusion tag with the protease met with poor success. The PreScission^TM protease is also available as a GST-tagged enzyme and it is possible that steric factors precluded the interaction of the protease with the cleavage site in our fusion protein. Additionally, our protein yields to begin with were very low (∼0.09 mg/ml) and this too could have affected the efficiency of the cleavage. […] We used similarly expressed and purified GST as the control for all our experiments. Similar studies with GST-tagged proteins, including conformational studies, have been reported by other groups previously (cf.).

For data set [3], the system named is collagen type IV treated with N-Glycosidase F. Briefly: Adhesion to N-glycosidase F treated collagen type IV. To be noted: 0.5 U N-glycosidase F, 3 hours; data not shown. It is filed as binding, human. As to the method:
Figure 3 Adhesion of Als5 to collagen type IV involves recognition of carbohydrate residues on collagen type IV but is not solely determined by it. (A) Adhesion of GST-Als5, GST-Als5-SS to collagen type IV. Different amounts of collagen type IV, as shown in the figure, were immobilized in 96-well flat bottomed ELISA plates and incubated with the proteins (0.09 mg/ml) of interest at 37 °C for 1 hour. The adhesion assay was carried out as described in Experimental Procedures. Adhesion of the proteins to collagen type IV was correlated to the absorbance at 650 nm observed by the oxidation of TMB, the substrate of HRP. […] Buffer controls (OD 650nm of 0.126 ± 0.003), corresponding to no immobilized collagen, have been subtracted in all cases. […] The data presented is mean of 3 independent experiments done in duplicates. […] (B) Treatment of collagen type IV with N-Glycosidase F results in decrease in adherence of GST-Als5. […] Adherence to collagen type IV was detected as already described. […]
Supplementary file pone.0035305.s005.tif: Figure S5 Treatment of collagen type IV with N-Glycosidase F results in decrease in adherence of GST-Als5. […] GST-Als5 was incubated before the adherence was detected by using primary anti-GST antibody and anti-rabbit HRP-conjugated secondary antibody and is represented in this figure by the Absorbance at 650nm observed upon oxidation of the specific substrate of HRP. […]

The record followed here is PMC3324464, “The GPI Anchor Signal Sequence Dictates the Folding and Functionality of the Als5 Adhesin from Candida albicans” (PLoS ONE, 2012).

Entries after “also recorded” stand apart in the source; their conditions may differ.

B1: GST-Als5: GST fusion of full length Als5 minus the GPI anchor attachment signal sequence, expressed in E. coli (protein)
chain: ITGIFNSIDSLTWSNAGNYAFKGPGYPTWNAVLGWSLDGTSANPGDTFILNMPCVFKFTASQKSVDLTADGVKYATCQFYSGEEFTTFSSLKCTVNNNLRSSIKALGTVTLPIAFNVGGTGSSVDLEDSKCFTAGTNTVTFNDGSKKLSIAVNFEKSTVDQSGYLTTSRFMPSLNKIATLYVAPQCENGYTSGTMGFSTSYGDVAIDCSNVHIGISKGVNDWNHPVTSESFSYTKSCSSFGISITYQNVPAGYRPFIDAYISPSDNNQYQLSYKNDYTCVDDYWQHAPFTLKWTGYKNSDAGSNGIVIVATTRTVTDSTTAVTTLPFNPSVDKTKTIEILQPIPTTTITTSYVGVTTSYSTKTAPIGETATVIVDVPYHTTTTVTSEWTGTITTTTTRTNPTDSIDTVVVQVPLPNPTTTTTQFWSESFTSTTTITNSLKGTDSVIVREPHNPTVTTTEFWSESYATTETITNGPEGTDSVIVREPHNPTVTTTEFWSESYATTETVTNKPEGTDSVIIKEPHNPTVTTTEFWSESYATTETITTGPLGTDSIVIHDPLEESSSTTAIESSDSNISSSAQESSSSVEQSSSIVGLSSSSDIPLSSDMPSSSSTGLTSSESSTVSSYDSDSSSSSELSTFSSSESYSSSISDTTNFWDSSSSDLESTSITWSSSIDAQSSQSVQSVSNSISTSQETTSSSGEESNTSVTDILVSSDASSILNSDISSYYPSSTISLSDDFPHTIAGEPDSRSSSSIASTVEISSDLVSLTSDPTSSFDSSSSLNSDSSSSPFSDESDISASSSFSTLVAPSFSLSSSSSLSLTYPHYVNSTTYHASESESSSVASPSMASESANDDTHTLSESTDTTSSIGTDSSTVTFCRRDNGDGCIVTGMPSSSIDSEQTSDVTTTSSFVASSTPTSAEQSITDNPNIDSSQTSASSSTKSSVSVSDTVVNSISLSETSTLSSDDSTSSDTSISSTTNSDTGNINAGSSHTSTASIKESSIQKTGVMLSSSYLSTKLSSTSDITTELITTELITTELTTIEDNEPNTFTSTPSSHSEIFSSDNSVLSKQVDRESTIKTSPTTDVTTVSSLSVHSTEASTATLGENSFSNVASTPSNIATSLRSTSSSSNHATESSGTVKSEASAEAIPSPPTSTDNRLSYSTEEAKGITYANSGSTNNLITESQVAAPTDSTSVLIENPVVTSTFDDNSSAAVDQPSKTKSIEESIMNPDSTNETNNGFIATLSQAQVPNSLIHSESISTTMAKTTDASINGDSAASNSQPTTLIQQVATSSYNQPLITTYAGSSS
modifications: left off: GST, N-terminal, kept
As for B1, the “aggregation (in words)” value in data set [1] (2 weeks, 0.4 µM / 0.09 mg/ml (method)) is “significantly higher amount of aggregation as compared to either GST-Als5-SS or GST alone; also recorded: showed significant amount of aggregation”; in data set [1] (2 days, SS 40.0 µM, GST-Als5 0.4 µM, alone or together), “aggregates both in the absence as well as in the presence of SS”. In addition, in data set [2], the “aggregation and precipitation on concentrating (in words)” value is “aggregating and precipitating out; also recorded: tended to aggregate and precipitate out of solution”. In data set [3], the “effect of longer deglycosylation on adhesion (in words)” value is “did not further reduce the adhesion”.
